Sequences and labels used below:
B1: (CCCUAA)5 RNA (ssRNA)
RNA: CCCUAACCCUAACCCUAACCCUAACCCUAA
B2: (TTAGGG)5 DNA (ssDNA)
DNA: TTAGGGTTAGGGTTAGGGTTAGGGTTAGGG
B3: random RNA (ssRNA)
RNA: AGAGAUUGCCUGACGUCAGAGAGCUAGCGA
B4: random DNA (ssDNA)
DNA: TATCGATAAGCTTGATATCGAATTCCTGCA

Chain of GST-TRF1 (P54274 whole entry): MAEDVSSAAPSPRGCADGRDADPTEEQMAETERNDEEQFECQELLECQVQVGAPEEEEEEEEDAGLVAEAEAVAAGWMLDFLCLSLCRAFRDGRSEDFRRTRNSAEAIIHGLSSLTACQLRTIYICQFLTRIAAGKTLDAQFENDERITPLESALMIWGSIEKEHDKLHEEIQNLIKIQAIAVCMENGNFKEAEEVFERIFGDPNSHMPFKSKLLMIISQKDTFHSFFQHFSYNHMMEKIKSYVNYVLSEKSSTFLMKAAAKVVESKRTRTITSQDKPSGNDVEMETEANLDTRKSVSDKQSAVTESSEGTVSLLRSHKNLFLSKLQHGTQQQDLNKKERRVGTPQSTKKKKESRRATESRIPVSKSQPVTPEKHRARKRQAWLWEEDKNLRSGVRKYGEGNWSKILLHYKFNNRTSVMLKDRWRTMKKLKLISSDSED
Chain of GST-TRF2 (Q15554 43-542): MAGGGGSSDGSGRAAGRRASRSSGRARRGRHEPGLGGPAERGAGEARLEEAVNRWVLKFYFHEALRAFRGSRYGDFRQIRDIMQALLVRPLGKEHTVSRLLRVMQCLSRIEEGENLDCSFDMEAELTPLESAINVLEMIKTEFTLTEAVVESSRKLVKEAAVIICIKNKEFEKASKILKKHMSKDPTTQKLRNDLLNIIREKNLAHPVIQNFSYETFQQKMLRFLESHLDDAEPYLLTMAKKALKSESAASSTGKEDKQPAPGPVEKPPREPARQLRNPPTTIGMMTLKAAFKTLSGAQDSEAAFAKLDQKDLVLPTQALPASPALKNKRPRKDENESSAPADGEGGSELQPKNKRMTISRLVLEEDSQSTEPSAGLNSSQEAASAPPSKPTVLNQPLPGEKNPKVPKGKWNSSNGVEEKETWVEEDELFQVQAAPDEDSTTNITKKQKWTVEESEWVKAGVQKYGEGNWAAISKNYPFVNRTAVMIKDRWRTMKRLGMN

The first data set concerns the target GST-TRF1 (human, UniProt P54274 1-439). In words: EMSA.
On to B1, for which the binding result is recorded as “no binding”.

On to B2, for which the binding result is “no binding”.

B3: the binding result is listed as “no binding”.

On to B4, for which the binding result is listed as “no binding”.

A further data set concerns the target GST-TRF2 (human, UniProt Q15554 43-542). Description: EMSA.
With B1, the binding result is “no binding”.

Consider B2, for which the binding result is listed as “no binding”.

In the case of B3, the binding result is “no binding”.

Take B4: the binding result is listed as “no binding”.

The values are drawn from article PMC5808845.
